In patent US10428093B2, “Lipid co-factor essential for cell density signaling” (priority 2013, dated 2019):

Test system: U2OS cells
Assay: Growth of U2OS cells after adding concentrated conditioned media or free protein factor
Format: cell-based, human
Conditions: free factor expressed in E. coli added at 5 μg/ml, after a week (6 days), vs control
Procedure: FIGS. 13A-F—The cofactor has a unique lipid makeup depending on the producing cell type but would SNZR 1P1L and SNZR 1P2L give the same or different response if added to the same cell type. In this case we used the control cell line U2OS and added a 5× concentrated condition medium from PAT cells or from U2OS-pESY1c cells. An additional test was done to see if the free factor made in E. coli had any activity on U2OS cells if applied at a high concentration (5 μg/ml).
To answer these questions, U2OS cells were grown in regular media as a control, or with 5× concentrated condition media from U2OS-pESY1c cells expressing the SNZR 1P1L, and from 5× concentrated condition media from PAT cells expressing SNZR 1P2L. In addition, SNZR 1P purified from E. coli, was added at 5 μg/ml—3 orders of magnitude greater than the estimated level in CM (FIG. 13a,b,c,d). […] The high level of the protein factor was chosen because it seemed unlikely that the factor without the cofactor would have a lot of activity and small amounts of activity are difficult to detect by visualization.
U2OS cells were grown in F12/DMEM medium with 0.2% fetal bovine serum. In 75 cm^2 flasks the medium, […], was changed every other day. When the cells first overgrow the monolayer, they are very sensitive to medium volume and will apoptose if too much medium is added.
CM was produced by growing cells in 225 cm^2 flasks. […]

B1: SNZR 1P: secreted 94 AA cell density signal protein factor (chicken, SEQ ID NO:3; tagged form SEQ ID NO:13) (protein, listed as Gallus gallus)
chain: EPLAVVDLRPQSSVKVEVHFQDKVEEMSIRLDQTVAELKKHLKTVVQLSTSNMLLFYLDQEAPFGPEEMKYSSRALHSYGIRDGDKIYVEPRMK
Q: For B1, which “Effect on growth of U2OS cells” value is on record?
A: The value was “did not appear to change the cultures”.

Q: What about the “Effect on growth of U2OS cells” value (listed as secreted form of the factor) of the same molecule?
A: The value was “did not appear to increase growth”.
